# PMC7017226
# Key:
# [1] = target: Stromal interacting molecule 2 (STIM2) (rat (endogenous in primary cortical neurons)); assay: proximity ligation; Duolink in situ PLA on fixed 17-day-old rat cortical neurons; rabbit anti-STIM1 or anti-STIM2 with mouse anti-NR2A or anti-NR2B; cells treated 10 min with 2 mM CaCl2 (control) or 2 uM TG in 0.5 mM EGTA; PLA signals per cell counted in ImageJ
# [2] = target: Stromal interacting molecule 1 (STIM1) (rat (endogenous in primary cortical neurons)) (UniProt P84903); assay: as above
# Sequence of Stromal interacting molecule 1 (STIM1) (rat (endogenous in primary cortical neurons)) (P84903 23-685): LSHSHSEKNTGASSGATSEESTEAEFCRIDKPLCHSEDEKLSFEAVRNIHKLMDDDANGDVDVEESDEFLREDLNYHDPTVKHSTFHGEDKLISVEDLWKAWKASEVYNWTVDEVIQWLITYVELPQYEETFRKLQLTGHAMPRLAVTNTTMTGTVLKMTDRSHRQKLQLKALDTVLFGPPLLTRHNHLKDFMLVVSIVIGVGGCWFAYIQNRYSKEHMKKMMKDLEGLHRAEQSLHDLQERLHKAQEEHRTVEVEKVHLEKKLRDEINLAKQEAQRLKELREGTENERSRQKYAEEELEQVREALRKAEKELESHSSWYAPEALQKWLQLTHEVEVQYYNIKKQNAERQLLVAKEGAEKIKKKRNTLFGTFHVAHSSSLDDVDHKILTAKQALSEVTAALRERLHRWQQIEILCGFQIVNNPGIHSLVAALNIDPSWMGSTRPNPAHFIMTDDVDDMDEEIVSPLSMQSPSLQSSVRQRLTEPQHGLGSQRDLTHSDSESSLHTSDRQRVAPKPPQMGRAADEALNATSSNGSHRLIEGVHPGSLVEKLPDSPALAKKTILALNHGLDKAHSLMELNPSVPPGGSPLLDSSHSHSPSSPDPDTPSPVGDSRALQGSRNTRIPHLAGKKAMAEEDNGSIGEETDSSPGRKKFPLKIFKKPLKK
# Sequence of NMDA receptor subunit NR2A (Q00959 23-1464): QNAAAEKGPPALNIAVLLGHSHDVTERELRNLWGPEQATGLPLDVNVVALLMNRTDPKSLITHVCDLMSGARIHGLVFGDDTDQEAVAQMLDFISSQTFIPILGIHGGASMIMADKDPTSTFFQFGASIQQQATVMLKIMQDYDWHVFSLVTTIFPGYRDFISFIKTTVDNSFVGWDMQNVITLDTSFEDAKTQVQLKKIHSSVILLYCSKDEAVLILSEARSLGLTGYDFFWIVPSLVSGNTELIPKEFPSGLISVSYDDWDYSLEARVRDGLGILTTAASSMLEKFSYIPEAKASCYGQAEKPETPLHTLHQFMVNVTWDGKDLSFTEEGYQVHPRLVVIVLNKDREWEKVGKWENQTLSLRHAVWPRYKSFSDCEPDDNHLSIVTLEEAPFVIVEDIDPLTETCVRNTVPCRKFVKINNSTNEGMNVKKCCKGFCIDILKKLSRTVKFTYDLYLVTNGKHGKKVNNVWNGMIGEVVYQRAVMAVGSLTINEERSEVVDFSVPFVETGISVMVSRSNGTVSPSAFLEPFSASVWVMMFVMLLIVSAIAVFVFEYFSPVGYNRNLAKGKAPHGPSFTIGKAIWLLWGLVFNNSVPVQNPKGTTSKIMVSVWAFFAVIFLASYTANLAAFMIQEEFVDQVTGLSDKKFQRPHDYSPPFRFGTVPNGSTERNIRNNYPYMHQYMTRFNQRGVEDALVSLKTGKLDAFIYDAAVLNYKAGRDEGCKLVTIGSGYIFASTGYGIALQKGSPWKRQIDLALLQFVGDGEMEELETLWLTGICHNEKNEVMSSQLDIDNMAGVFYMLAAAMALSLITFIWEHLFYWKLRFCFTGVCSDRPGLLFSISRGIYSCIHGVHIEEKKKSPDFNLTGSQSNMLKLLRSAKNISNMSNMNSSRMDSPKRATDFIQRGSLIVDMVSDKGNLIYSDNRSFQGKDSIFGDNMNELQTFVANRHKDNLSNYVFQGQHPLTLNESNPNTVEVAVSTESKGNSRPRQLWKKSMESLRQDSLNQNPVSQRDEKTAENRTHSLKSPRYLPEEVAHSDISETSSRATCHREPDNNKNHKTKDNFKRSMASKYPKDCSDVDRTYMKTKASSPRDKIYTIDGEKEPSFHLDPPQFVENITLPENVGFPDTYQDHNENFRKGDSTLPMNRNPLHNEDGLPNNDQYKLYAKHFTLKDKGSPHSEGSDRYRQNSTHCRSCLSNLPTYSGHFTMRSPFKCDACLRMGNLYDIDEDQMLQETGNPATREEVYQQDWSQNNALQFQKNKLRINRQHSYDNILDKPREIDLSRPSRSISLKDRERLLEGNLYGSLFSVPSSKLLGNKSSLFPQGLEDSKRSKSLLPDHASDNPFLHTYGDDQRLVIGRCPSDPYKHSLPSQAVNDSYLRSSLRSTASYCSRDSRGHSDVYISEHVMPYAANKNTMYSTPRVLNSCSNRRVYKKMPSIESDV
# Sequence of NMDA receptor subunit NR2B, Q00960 27-1482 (receptor; other documents disagree on this pair) (Q00960 27-1482): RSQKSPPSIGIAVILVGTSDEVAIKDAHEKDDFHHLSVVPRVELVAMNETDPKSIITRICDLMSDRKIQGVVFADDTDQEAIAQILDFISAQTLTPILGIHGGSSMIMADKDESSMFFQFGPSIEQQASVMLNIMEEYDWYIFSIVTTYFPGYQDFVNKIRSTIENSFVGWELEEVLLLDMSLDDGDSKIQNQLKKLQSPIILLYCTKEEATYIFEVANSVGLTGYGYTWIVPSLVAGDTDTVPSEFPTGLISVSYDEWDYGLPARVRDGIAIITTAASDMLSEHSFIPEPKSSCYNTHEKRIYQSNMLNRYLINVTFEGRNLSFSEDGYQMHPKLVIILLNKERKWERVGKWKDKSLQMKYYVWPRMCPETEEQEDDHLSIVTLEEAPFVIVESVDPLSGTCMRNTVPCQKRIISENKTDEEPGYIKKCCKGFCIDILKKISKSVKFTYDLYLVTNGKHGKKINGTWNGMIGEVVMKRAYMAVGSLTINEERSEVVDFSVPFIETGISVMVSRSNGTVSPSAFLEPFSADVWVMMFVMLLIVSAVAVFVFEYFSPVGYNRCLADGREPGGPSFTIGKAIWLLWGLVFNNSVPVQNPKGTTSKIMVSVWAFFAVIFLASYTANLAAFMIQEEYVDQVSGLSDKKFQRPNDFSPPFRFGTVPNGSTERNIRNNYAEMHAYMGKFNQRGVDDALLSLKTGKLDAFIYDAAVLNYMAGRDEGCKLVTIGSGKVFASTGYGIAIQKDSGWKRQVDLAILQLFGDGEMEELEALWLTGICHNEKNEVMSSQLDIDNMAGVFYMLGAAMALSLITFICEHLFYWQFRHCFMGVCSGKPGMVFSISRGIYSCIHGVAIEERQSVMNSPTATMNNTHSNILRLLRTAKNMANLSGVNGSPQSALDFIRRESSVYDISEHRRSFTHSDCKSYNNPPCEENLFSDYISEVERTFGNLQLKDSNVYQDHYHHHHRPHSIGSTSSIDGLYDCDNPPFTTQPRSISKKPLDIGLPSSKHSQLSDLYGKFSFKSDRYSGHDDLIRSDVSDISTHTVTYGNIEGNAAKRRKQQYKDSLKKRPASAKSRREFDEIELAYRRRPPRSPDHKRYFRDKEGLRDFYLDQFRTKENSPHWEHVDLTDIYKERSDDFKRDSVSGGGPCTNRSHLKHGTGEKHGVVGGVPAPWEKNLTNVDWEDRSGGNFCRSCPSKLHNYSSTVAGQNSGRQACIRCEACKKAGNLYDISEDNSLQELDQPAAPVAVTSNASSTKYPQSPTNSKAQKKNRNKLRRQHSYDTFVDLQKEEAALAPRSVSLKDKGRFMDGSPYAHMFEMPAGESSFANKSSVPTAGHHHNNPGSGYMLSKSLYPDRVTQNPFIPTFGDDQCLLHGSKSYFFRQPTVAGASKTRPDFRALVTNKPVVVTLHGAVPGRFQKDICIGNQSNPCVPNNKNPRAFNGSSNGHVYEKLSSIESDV
PLA complexes per cell (complexes per cell) [1],PLA complexes per cell (complexes per cell) [2],Substance
3.78,,NMDA receptor subunit NR2A (from UniProt Q00959 23-1464)
,57.2,"NMDA receptor subunit NR2B, Q00960 27-1482 (receptor; other documents disagree on this pair)"
